According to PMC3483176, “Structural Insight into the Clostridium difficile Ethanolamine Utilisation Microcompartment” (PLoS ONE, 2012):

B1: CD1918, C-terminal His6 tagged (CD1918-His) (natural protein)
chain: MASANALGMIETKGLVGAIEAADAMVKAANVQLVGKEQVGGGLVTVMVRGDVGAVKAATDAGAAAAERVGELISVHVIPRPHFEVDAILPKVSAE
notes: CD1918, EutM homologue, BMC shell protein of the eut operon of Clostridium difficile 630; full length open reading frame amplified from genomic DNA (genome positions 2219567-2219854); Cloned between NcoI and XhoI of pET28b; the XhoI site probably adds Leu-Glu before the His6 tag (surmised); also called EutM; C. difficile EutM homologue; source: E. coli B834 (DE3), purified (HisTrap, Superdex S200 …)
B2: CD1908, C-terminal His6 tagged (CD1908-His) (natural protein, Clostridium difficile 630, UniProt Q187M0 1-116, looked up)
chain: MTEESKQRVIQEYVPGKQVTLAHIIANPNEDIYKKLGLVLDKKDAIGILTITPSEASIIAADVATKASNVSLGFIDRFSGSVVISGDVSSVESALNDVLEVLGNMLNFSSTKITRT
notes: CD1908, EutS homologue, BMC shell protein of the eut operon of Clostridium difficile 630; full length open reading frame amplified from genomic DNA (genome positions 2209853-2210203); Cloned between NcoI and XhoI of pET28b; also called EutS; C. difficile EutS homologue; source: E. coli B834 (DE3), purified (HisTrap, Superdex S200 size exclusion); not shown: His6, C-terminal, kept

What was measured:
[1] = biological target: the molecule itself; test: crystal structure; CD1918-His at 10 mg/ml in Milli-Q H2O, sitting drop, 200 mM Li2SO4, 100 mM phosphate/citrate buffer pH 4.2, 20% (w/v) PEG 1000; space group I 1 2 1; three chains in the asymmetric unit, hexamer by a crystallographic 2-fold axis; oligomerisation states calculated with PISA
[2] = biological target: the molecule itself; test: crystal structure; CD1908-His at 10 mg/ml in Milli-Q H2O, sitting drop, 24% (w/v) PEG 1500, 20% (v/v) glycerol; space group H 3; two molecules in the asymmetric unit, hexamer by the crystallographic 3-fold axis; oligomerisation states calculated with PISA

Protein	stoichiometry N [1]	stoichiometry N [2]
B1	6	
B2		6
